Data taken from article PMC7094161.

Columns and labels:
[1] = target: CDC25C substrate peptide of the EKAR construct; assay: FRET or BRET; FRET/FLIM: EGFP fluorescence lifetime of EKAR constructs (WW domain and peptide on one chain) in fixed, mounted COS cells; serum in the medium
[2] = target: CDC25C substrate peptide of the EKAR construct; assay: FRET or BRET; FRET/FLIM: EGFP fluorescence lifetime of EKAR constructs (WW domain and peptide on one chain) in living COS cells; serum in the medium

Chain of Pin1 WW domain of the EKAR construct (Q13526 5-39): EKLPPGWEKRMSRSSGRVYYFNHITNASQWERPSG

EGFP fluorescence lifetime [1]: 1.68 ns | EGFP fluorescence lifetime [2]: 2.12 ns
Substance: Pin1 WW domain of the EKAR construct (from UniProt Q13526 5-39) (domain or fragment)
